Experimental data as given in article PMC6506263 (The Biochemical journal, 2019).

Assays:
[1] = biological target: TorS sensor domain (Escherichia coli) (UniProt P39453); details: cited from earlier work
[2] = biological target: the molecule itself; assay: native gel or EMSA
[3] = biological target: the molecule itself; assay: cross-linking

TorS sensor domain, sequence (P39453 whole entry, the tested form may be a part): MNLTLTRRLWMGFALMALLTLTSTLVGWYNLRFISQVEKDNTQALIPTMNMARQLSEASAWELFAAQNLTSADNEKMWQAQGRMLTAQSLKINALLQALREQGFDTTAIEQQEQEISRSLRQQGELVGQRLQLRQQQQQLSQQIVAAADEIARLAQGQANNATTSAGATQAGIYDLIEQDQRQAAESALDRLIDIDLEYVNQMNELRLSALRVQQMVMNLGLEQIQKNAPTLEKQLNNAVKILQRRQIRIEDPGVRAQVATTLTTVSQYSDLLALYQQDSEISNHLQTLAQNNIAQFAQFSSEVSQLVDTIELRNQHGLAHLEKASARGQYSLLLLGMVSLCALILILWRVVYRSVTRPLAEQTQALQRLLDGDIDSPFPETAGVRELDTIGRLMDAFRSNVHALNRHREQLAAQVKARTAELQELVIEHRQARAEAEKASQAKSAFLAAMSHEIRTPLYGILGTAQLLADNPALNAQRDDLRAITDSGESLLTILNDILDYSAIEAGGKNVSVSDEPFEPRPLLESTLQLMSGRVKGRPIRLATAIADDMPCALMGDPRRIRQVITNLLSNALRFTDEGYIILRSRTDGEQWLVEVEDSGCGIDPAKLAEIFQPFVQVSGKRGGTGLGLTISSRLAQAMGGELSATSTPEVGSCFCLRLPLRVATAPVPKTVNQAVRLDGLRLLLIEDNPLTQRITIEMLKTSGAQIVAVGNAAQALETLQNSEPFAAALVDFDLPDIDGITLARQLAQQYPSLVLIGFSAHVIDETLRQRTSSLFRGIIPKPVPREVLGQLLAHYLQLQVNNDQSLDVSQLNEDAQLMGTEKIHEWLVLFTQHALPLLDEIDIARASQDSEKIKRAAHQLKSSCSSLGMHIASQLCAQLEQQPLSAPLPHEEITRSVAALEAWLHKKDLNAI

Molecule	binding result [2]	binding result [3]	further results
TorS sensor domain (from UniProt P39453)			Kd [1]: 49.6 µM
CusScp-short, cytoplasmic domain of CusS (amino acids 208–480) with C-terminal 6xHis tag, wild-type (domain or fragment, E. coli) MASKGHAPIRSVSRQIQNITSKDLDVRLDPQTVPIELEQLVLSFNHMIERIEDVFTRQSNFSADIAHEIRTPITNLITQTEIALSQSRSQKELEDVLYSNLEELTRMAKMVSDMLFLAQADNNQLIPEKKMLNLADEVGKVFDFFEALAEDRGVELRFVGDKCQVAGDPLMLRRALSNLLSNALRYTPTGETIVVRCQTVDHLVQVIVENPGTPIAPEHLPRLFDRFYRVDPSRQRKGEGSGIGLAIVKSIVVAHKGTVAVTSDARGTRFVITLPALE	binds		
CusScp-long, cytoplasmic domain of CusS with C-terminal Strep-Myc-Strep-FLAG-HA-Strep tags, wild-type (domain or fragment, E. coli, UniProt P77485 208-480, looked up) KGHAPIRSVSRQIQNITSKDLDVRLDPQTVPIELEQLVLSFNHMIERIEDVFTRQSNFSADIAHEIRTPITNLITQTEIALSQSRSQKELEDVLYSNLEELTRMAKMVSDMLFLAQADNNQLIPEKKMLNLADEVGKVFDFFEALAEDRGVELRFVGDKCQVAGDPLMLRRALSNLLSNALRYTPTGETIVVRCQTVDHLVQVIVENPGTPIAPEHLPRLFDRFYRVDPSRQRKGEGSGIGLAIVKSIVVAHKGTVAVTSDARGTRFVITLPA	binds		
N-terminal Strep-tagged CusS(39–187) wild-type, periplasmic sensor domain of the histidine kinase CusS (domain or fragment, E. coli) VKVHFAEQDINDLKEISATLERVLNHPDETQARRLMTLEDIVSGYSNVLISLADSQGKTVYHSPGAPDIREFTRDAIPDKDAQGGEVYLLSGPTMMMPGHGHGHMEHSNWRMINLPVGPLVDGKPIYTLYIALSIDFHLHYINDLMNKLEGSA		binds	
N-terminal Strep-tagged CusS(39–187)-IIA (M133I/M135I/H145A), internal metal binding site eliminated (domain or fragment, E. coli) VKVHFAEQDINDLKEISATLERVLNHPDETQARRLMTLEDIVSGYSNVLISLADSQGKTVYHSPGAPDIREFTRDAIPDKDAQGGEVYLLSGPTIMIPGHGHGHMEASNWRMINLPVGPLVDGKPIYTLYIALSIDFHLHYINDLMNKLEGSA		binds	
